Numbering of substitutions follows the chain as printed. Numbers in names are those of the source.
Experiments:
Conditions in all cases: Homo sapiens
[1] = substrate: Nc1c(O)cccc1C(=O)CC(N)C(=O)O
Description: (§1) Ratio of kcat to Km for human wild type kynureninase

[2] = substrate: Nc1ccccc1C(=O)C[C@H](N)C(=O)O
Description: as §1

[3] = substrate: Nc1c(O)cccc1C(=O)CC(N)C(=O)O; remark: listed apart in the source
Description: (§2) Activity of human wild type kynureninase

[4] = substrate: Nc1ccccc1C(=O)C[C@H](N)C(=O)O; remark: listed apart in the source
Description: as §2

[5] = substrate: Nc1c(O)cccc1C(=O)CC(N)C(=O)O; remark: listed apart in the source
Description: (§3) Activity of human kynureninase N333T mutant

[6] = substrate: Nc1ccccc1C(=O)C[C@H](N)C(=O)O; remark: listed apart in the source
Description: as §3

[7] = substrate: Nc1c(O)cccc1C(=O)CC(N)C(=O)O; remark: listed apart in the source
Description: (§4) Ratio of kcat to Km for human kynureninase N333T mutant

[8] = substrate: Nc1ccccc1C(=O)C[C@H](N)C(=O)O; remark: listed apart in the source
Description: as §4

[9] = substrate: Nc1c(O)cccc1C(=O)CC(N)C(=O)O; remark: listed apart in the source
Description: (§5) Ratio of kcat to Km for human kynureninase S332G/N333T mutant

[10] = substrate: Nc1ccccc1C(=O)C[C@H](N)C(=O)O; remark: listed apart in the source
Description: as §5

[11] = substrate: Nc1c(O)cccc1C(=O)CC(N)C(=O)O; remark: listed apart in the source
Description: (§6) Activity of human kynureninase S332G/N333T mutant

[12] = substrate: Nc1ccccc1C(=O)C[C@H](N)C(=O)O; remark: listed apart in the source
Description: as §6

[13] = substrate: Nc1ccccc1C(=O)C[C@H](N)C(=O)O; remark: listed apart in the source
Description: Activity of human kynureninase H102W/N333T mutant

[14] = substrate: Nc1c(O)cccc1C(=O)CC(N)C(=O)O; remark: listed apart in the source
Description: (§7) Ratio of kcat to Km for human kynureninase H102W/N333T mutant

[15] = substrate: Nc1ccccc1C(=O)C[C@H](N)C(=O)O; remark: listed apart in the source
Description: as §7

[16] = substrate: Nc1ccccc1C(=O)C[C@H](N)C(=O)O; remark: listed apart in the source
Description: Activity of human kynureninase H102W/S332G/N333T mutant

[17] = substrate: Nc1c(O)cccc1C(=O)CC(N)C(=O)O; remark: listed apart in the source
Description: (§8) Ratio of kcat to Km for human kynureninase H102W/S332G/N333T mutant

[18] = substrate: Nc1ccccc1C(=O)C[C@H](N)C(=O)O; remark: listed apart in the source
Description: as §8

B1: Kynureninase (Homo sapiens), Q16719 (protein)
chain: MEPSSLELPADTVQRIAAELKCHPTDERVALHLDEEDKLRHFRECFYIPKIQDLPPVDLSLVNKDENAIYFLGNSLGLQPKMVKTYLEEELDKWAKIAAYGHEVGKRPWITGDESIVGLMKDIVGANEKEIALMNALTVNLHLLMLSFFKPTPKRYKILLEAKAFPSDHYAIESQLQLHGLNIEESMRMIKPREGEETLRIEDILEVIEKEGDSIAVILFSGVHFYTGQHFNIPAITKAGQAKGCYVGFDLAHAVGNVELYLHDWGVDFACWCSYKYLNAGAGGIAGAFIHEKHAHTIKPALVGWFGHELSTRFKMDNKLQLIPGVCGFRISNPPILLVCSLHASLEIFKQATMKALRKKSVLLTGYLEYLIKHNYGKDKAATKKPVVNIITPSHVEERGCQLTITFSVPNKDVFQELEKRGVVCDKRNPNGIRVAPVPLYNSFHDVYKFTNLLTSILDSAETKN
[1]
  kcat/Km: 1.23 ×10⁵ /M/s
[2]
  kcat/Km: 465 M⁻¹ s⁻¹
[3]
  Km: 28.3 µM
  kcat: 3.5 s⁻¹
[4]
  Km: 495 µM
  kcat: 0.23 s⁻¹

B2: Kynureninase (Homo sapiens), Q16719 N333T (protein)
chain: B1 chain with N333T
[5]
  Km: > 200 µM
  kcat: < 3.9 ×10⁻³ /s
[6]
  Km: 499 µM
  kcat: 0.026 s⁻¹
[7]
  kcat/Km: 19.8 M⁻¹ s⁻¹
[8]
  kcat/Km: 52.1 M⁻¹ s⁻¹

B3: Kynureninase (Homo sapiens), Q16719 S332G,N333T (protein)
chain: B1 chain with S332G, N333T
[9]
  kcat/Km: 21.5 M⁻¹ s⁻¹
[10]
  kcat/Km: 31.4 M⁻¹ s⁻¹
[11]
  Km: > 510 µM
  kcat: < 10.9 ×10⁻³ /s
[12]
  Km: 540 µM
  kcat: 0.017 s⁻¹

B4: Kynureninase (Homo sapiens), Q16719 H102W,N333T (protein)
chain: B1 chain with H102W, N333T
[13]
  Km: 327 µM
  kcat: 0.007 s⁻¹
[14]
  kcat/Km: < 0.0165 M⁻¹ s⁻¹
[15]
  kcat/Km: 21.4 M⁻¹ s⁻¹

B5: Kynureninase (Homo sapiens), Q16719 H102W,S332G,N333T (protein)
chain: B1 chain with H102W, S332G, N333T
[16]
  Km: 143 µM
  kcat: 0.018 s⁻¹
[17]
  kcat/Km: < 0.0165 M⁻¹ s⁻¹
[18]
  kcat/Km: 126 M⁻¹ s⁻¹

From ChEMBL document CHEMBL1139388, “Crystal structure of the Homo sapiens kynureninase-3-hydroxyhippuric acid inhibitor complex: insights into the molecular basis of kynureninase substrate specificity” (J Med Chem, 2009)
